# Data: article PMC4823841
# Target: recombinant human renin (human) (UniProt P00797)
# UniProt P00797, sequence (P00797 67-406): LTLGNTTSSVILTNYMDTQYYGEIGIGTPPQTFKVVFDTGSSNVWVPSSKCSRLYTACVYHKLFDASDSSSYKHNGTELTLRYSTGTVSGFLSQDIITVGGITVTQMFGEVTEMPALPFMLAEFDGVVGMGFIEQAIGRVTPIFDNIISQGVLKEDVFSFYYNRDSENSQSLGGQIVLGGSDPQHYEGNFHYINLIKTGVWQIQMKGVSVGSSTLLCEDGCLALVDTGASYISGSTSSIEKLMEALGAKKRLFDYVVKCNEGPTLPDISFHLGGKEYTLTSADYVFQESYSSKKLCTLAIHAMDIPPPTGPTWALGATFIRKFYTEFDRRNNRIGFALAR
substance,measurement,value
recombinant ovine angiotensinogen expressed in CHO cells (natural protein),"Km (steady-state kinetics of human renin, 25 pM, with 0-0.4 μM oANG at 37 °C, pH 7.2; angiotensin I generated, measured by ELISA; Hanes-Woolf plot)",0.072 μM
